These results are taken from the supplement of paper PMC9112550, “Optimization of the antimicrobial peptide Bac7 by deep mutational scanning” (BMC Biology, 2022).

The test system of this data set is Escherichia coli TOP10. Description: shrunken log2 fold change of peptide-encoding DNA abundance (4.5 h post-induction vs induction); higher = less antimicrobial activity (less host growth inhibition). Conditions: time post-induction: 4.5 h; library: site-saturation at positions 5, 18, 19, 20.
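Further: peptides expressed intracellularly from a pBAD plasmid library in pooled LB shake-flask culture, induced with 0.3% L-arabinose, DNA abundance read by NGS, three biological replicates, DESeq2 with apeglm shrinkage.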

On to RRIRCRPPRLPRPRPRPFFLPRP, for which the “shrunken log2 fold change” value was -0.512.
The result for RRIRGRPPRLPRPRPRPVEEPRP reads 0.843; that for RRIRGRPPRLPRPRPRPLWDPRP, 0.537.
For the sequence RRIRLRPPRLPRPRPRPCWAPRP, the “shrunken log2 fold change” value was -0.0392.
On to RRIRIRPPRLPRPRPRPCARPRP, for which the “shrunken log2 fold change” value was 0.039.
The same measure for RRIRFRPPRLPRPRPRPIAPPRP: 0.0659; for RRIRVRPPRLPRPRPRPMTSPRP: -0.128.
For RRIRPRPPRLPRPRPRPVQKPRP, the “shrunken log2 fold change” value was found to be 0.0644.
For RRIRERPPRLPRPRPRPAATPRP, the “shrunken log2 fold change” value worked out at 0.222.
For the sequence RRIRCRPPRLPRPRPRPQYAPRP, the “shrunken log2 fold change” value is -0.231.
For RRIRQRPPRLPRPRPRPILMPRP, the “shrunken log2 fold change” value is 0.0271.
The same measure for RRIRMRPPRLPRPRPRPGHYPRP: -0.196.
On to RRIRLRPPRLPRPRPRPNECPRP, for which the “shrunken log2 fold change” value is -0.0751.
The same measure for RRIRFRPPRLPRPRPRPGIPPRP: -0.183; for RRIRHRPPRLPRPRPRPVKSPRP: -0.0219.
As to RRIRTRPPRLPRPRPRPQSGPRP, the “shrunken log2 fold change” value came out at 0.00577.
The same measure for RRIRDRPPRLPRPRPRPGSFPRP: 0.0331.
The same measure for RRIRQRPPRLPRPRPRPPMHPRP: 0.277.
The result for RRIRDRPPRLPRPRPRPPMLPRP reads -0.0165; that for RRIRFRPPRLPRPRPRPMELPRP, 0.112; that for RRIRVRPPRLPRPRPRPKNHPRP, -0.18.
With RRIRWRPPRLPRPRPRPFADPRP, the “shrunken log2 fold change” value was 0.737.
In the case of RRIRKRPPRLPRPRPRPELYPRP, the “shrunken log2 fold change” value was 0.0137.
In the case of RRIRERPPRLPRPRPRPIVVPRP, the “shrunken log2 fold change” value was -0.29.
Regarding RRIRVRPPRLPRPRPRPICQPRP, the “shrunken log2 fold change” value is -0.188.
Turning to RRIRMRPPRLPRPRPRPEPTPRP, the “shrunken log2 fold change” value turned out to be 2.58.
The same measure for RRIRMRPPRLPRPRPRPFWLPRP: -0.179; for RRIRDRPPRLPRPRPRPCENPRP: 0.0231.
As to RRIRARPPRLPRPRPRPPKDPRP, the “shrunken log2 fold change” value turned out to be 1.78.
The result for RRIRLRPPRLPRPRPRPCTVPRP reads -0.0157; that for RRIRQRPPRLPRPRPRPKKWPRP, -0.0403; that for RRIRERPPRLPRPRPRPWFQPRP, -0.0883.
The same measure for RRIRFRPPRLPRPRPRPFKKPRP: -0.119; for RRIRQRPPRLPRPRPRPRLLPRP: 0.0504.
The same measure for RRIRQRPPRLPRPRPRPAHGPRP: 0.19; for RRIRPRPPRLPRPRPRPMFKPRP: -0.0861; for RRIRARPPRLPRPRPRPGRKPRP: 0.43.
With RRIRRRPPRLPRPRPRPAGLPRP, the “shrunken log2 fold change” value was 0.153.
Take RRIRIRPPRLPRPRPRPISTPRP: the “shrunken log2 fold change” value is -1.54.
Turning to RRIRVRPPRLPRPRPRPYITPRP, the “shrunken log2 fold change” value is -0.77.
The same measure for RRIRNRPPRLPRPRPRPIDAPRP: 0.0153; for RRIRERPPRLPRPRPRPWFYPRP: -0.985; for RRIRTRPPRLPRPRPRPKYLPRP: -0.0222.
The result for RRIRPRPPRLPRPRPRPTKPPRP reads 0.323.
The result for RRIRHRPPRLPRPRPRPFDLPRP reads -0.211; that for RRIRARPPRLPRPRPRPSYGPRP, -0.282.
RRIRRRPPRLPRPRPRPIMTPRP: the “shrunken log2 fold change” value was determined as 0.125.
The same measure for RRIRYRPPRLPRPRPRPFTSPRP: -0.0993; for RRIRQRPPRLPRPRPRPLNEPRP: -0.136; for RRIRGRPPRLPRPRPRPERMPRP: 0.251.
The result for RRIRERPPRLPRPRPRPGRWPRP reads 0.796; that for RRIRYRPPRLPRPRPRPKYNPRP, -1.24; that for RRIRCRPPRLPRPRPRPITRPRP, -0.429.
On to RRIRVRPPRLPRPRPRPDHDPRP, for which the “shrunken log2 fold change” value is -0.485.
For the sequence RRIRDRPPRLPRPRPRPTYKPRP, the “shrunken log2 fold change” value is -0.529.
Consider RRIRFRPPRLPRPRPRPLYDPRP, for which the “shrunken log2 fold change” value is -0.358.
The result for RRIRQRPPRLPRPRPRPYCWPRP reads -0.554; that for RRIRRRPPRLPRPRPRPQPAPRP, 0.387.
The result for RRIRDRPPRLPRPRPRPTTPPRP reads 0.351; that for RRIRLRPPRLPRPRPRPMQIPRP, 0.057; that for RRIRQRPPRLPRPRPRPPIHPRP, -0.0767.
For RRIRIRPPRLPRPRPRPPATPRP, the “shrunken log2 fold change” value amounted to 0.177.
Regarding RRIRIRPPRLPRPRPRPYMGPRP, the “shrunken log2 fold change” value was -0.579.
The result for RRIRFRPPRLPRPRPRPSYHPRP reads -0.485; that for RRIRTRPPRLPRPRPRPTGEPRP, 0.178; that for RRIRDRPPRLPRPRPRPCPIPRP, -0.00104.
Regarding RRIRDRPPRLPRPRPRPHYRPRP, the “shrunken log2 fold change” value is -0.562.
The result for RRIRKRPPRLPRPRPRPQFCPRP reads 0.0712; that for RRIRMRPPRLPRPRPRPACNPRP, 0.39.
The result for RRIRKRPPRLPRPRPRPPHWPRP reads 0.756.
The result for RRIRCRPPRLPRPRPRPRYHPRP reads -0.685; that for RRIRARPPRLPRPRPRPREKPRP, 0.383.
As to RRIRSRPPRLPRPRPRPAKMPRP, the “shrunken log2 fold change” value was -0.0464.
For RRIRKRPPRLPRPRPRPLHPPRP, the “shrunken log2 fold change” value turned out to be 0.158.
In the case of RRIRHRPPRLPRPRPRPWNHPRP, the “shrunken log2 fold change” value was -0.0561.
The same measure for RRIRMRPPRLPRPRPRPYWSPRP: -0.186; for RRIRPRPPRLPRPRPRPGITPRP: -0.138.
For the sequence RRIRIRPPRLPRPRPRPMMPPRP, the “shrunken log2 fold change” value was -0.238.
The result for RRIRMRPPRLPRPRPRPNFKPRP reads -0.0166; that for RRIRVRPPRLPRPRPRPNDLPRP, -0.31.
As to RRIRERPPRLPRPRPRPYFGPRP, the “shrunken log2 fold change” value was -0.673.
The same measure for RRIRGRPPRLPRPRPRPTRNPRP: 1.61; for RRIRHRPPRLPRPRPRPTDIPRP: -0.668.
The result for RRIRARPPRLPRPRPRPCAVPRP reads 0.365; that for RRIRKRPPRLPRPRPRPLLNPRP, -0.295; that for RRIRHRPPRLPRPRPRPFEYPRP, -0.219.
The same measure for RRIRLRPPRLPRPRPRPGHPPRP: 0.0236; for RRIRHRPPRLPRPRPRPAHHPRP: 0.178.
Consider RRIRMRPPRLPRPRPRPYKNPRP, for which the “shrunken log2 fold change” value was -0.259.
The same measure for RRIRVRPPRLPRPRPRPCANPRP: -0.129; for RRIRFRPPRLPRPRPRPAKNPRP: -0.0212.
